Assay [1] deals with T1, human CD47, full length, on transfected cells (human, UniProt Q08722 19-323).
T1 construct: whole, on cells; also called CHOK1-hCD47
The assay is described as follows: flow cytometry (FACS) on CHOK1-hCD47 cells, mean fluorescence intensity.
Description: (§1) The CHOK1-hCD47 stable cell lines and CHOK1-cCD47 stable cell lines were expanded to 90% confluence in a T-75 cell culture flask, the medium was exhausted, washed twice with HBSS buffer (Hanks balanced salt solution) (purchased from Invitrogen), and then treated and collected with enzyme-free cell dissociation solution (Versene solution: purchased from Life technology). The cells were washed twice with HBSS buffer. After counted, the cells were diluted with HBSS to 2×10⁶ cells per ml, added with 1% goat serum blocking solution, wherein the percentage was the mass percantage, incubated on ice for 30 minutes, and then washed twice with HBSS by centrifugation. […] The plate was washed 3 times with FACS buffer by centrifugation, added with 100 μl fixative solution [4% (v/v) Paraformaldehyde] per well to suspend the cells. 10 minutes later, it was washed twice with FACS buffer by centrifugation. The cells were suspended with 100 microliters of FACS buffer, FACS (FACS Calibur, purchased from BD) was used for detection and the results were analyzed.

Assay [2] concerns the target T2, biotin-labeled CD47 extracellular domain protein (CD47-ECD) (UniProt Q08722 19-139, limits assumed, biotin-labeled (sites not given)).
T2 construct: extracellular domain; also called CD47 protein
The assay is described as follows: blocking ELISA: SIRPα-hFc coated, biotin-labeled CD47-ECD added with the antibody, OD450; blocked ligand SIRPα-hFc.

Assay [3] has as its target T3, mouse CD47, on CHOK1/mCD47 cells (mouse, UniProt Q61735 19-303).
T3 construct: whole, on cells; also called murine CD47
T3 sequence (looked up): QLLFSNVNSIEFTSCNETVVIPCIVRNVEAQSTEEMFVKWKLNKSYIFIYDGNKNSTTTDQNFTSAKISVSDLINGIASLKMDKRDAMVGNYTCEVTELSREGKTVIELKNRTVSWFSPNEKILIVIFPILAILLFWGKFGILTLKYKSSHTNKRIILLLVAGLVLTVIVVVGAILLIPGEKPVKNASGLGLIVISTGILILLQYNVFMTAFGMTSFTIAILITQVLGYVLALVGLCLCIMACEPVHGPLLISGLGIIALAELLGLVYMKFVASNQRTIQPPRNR
Kind of assay: flow cytometry (FACS) on CHOK1-mCD47 cells, mean fluorescence intensity. For orientation: Flow cytometry measures light scatter and fluorescence of single cells or particles in a stream.

The target of assay [4] is T4, cynomolgus CD47, on CHOK1-cCD47 stable cell line (cynomolgus).
T4 construct: whole, on cells; check before use; also called CHOK1/cynoCD47; monkey-derived CD47
Kind of assay: flow cytometry (FACS) on CHOK1-cynoCD47 cells, mean fluorescence intensity.
Description: as §1

Assay [5] concerns the target T5, His-tagged CD47 recombinant protein, CD47-His (human, UniProt Q08722 19-141, limits assumed).
T5 construct: it is not restated for CD47-His; also called human CD47-His protein; antigen CD47-His; not shown: His tag
The assay is described as follows: BLI (Octet Red 96), antibody on AHC sensor, CD47-His 100 nM. On the technique in general: In BLI a coated tip is dipped into the sample, and binding shifts an interference pattern.

For assay [6], the target named is T2, biotin-labeled CD47 extracellular …. Kind of assay: blocking ELISA: SIRPα-hFc coated, biotin-labeled CD47-ECD added with the antibody, OD450; blocked ligand SIRPα-hFc. This is another data set of the same source. In general terms: An ELISA detects its analyte on a solid surface through an enzyme-linked reagent.

Where two headings read alike, the source gives them in different places.

B1: c29A03NA (antibody, V domains shown)
VH: EVQLQQSGAELVKPGASVKMSCKASGYTFTNYWITWVKQRPGQGLEWIGDIYPVSGGTDYNEKFKTRATLTVDTSSSTAYMHLSSLTSEDSAVYYCARKGRGGVDYWGQGTTLTVSS
VL: DILMTQTPLSLPVSLGDQASISCRSSQSIVHSNANTYLEWYLQKPGQSPKLLIYKVSNRFSGVPDRFSGSGSGTDFTLKISRVEAEDLGVYFCSQSTHVPYTFGGGTKLEIK
notes: Phage-derived clone 29A03 with the NG site of CDRL1 mutated to NA
As a reminder, the EC50 (read off the curve) is the concentration at which the effect is half-maximal. The low end stands for higher potency in that assay, the high end for lower potency in that assay. By Kd is commonly meant the free concentration of one partner at which half of the binding sites on the other are occupied at equilibrium, for simple one-to-one binding. By koff is commonly meant a measure of how fast the partners let go of each other. Broadly, the kon is the rate constant with which the complex forms. Take B1: the concentration for a half-maximal effect (EC50 (read off the curve)) in assay [1] is roughly 5 nM. The “IC50 (read off the curve)” value in assay [2] is roughly 1 nM. Also, the “EC50 (read off the curve)” value in assay [3] was roughly 10 nM. Further, the “EC50 (read off the curve)” value in assay [4] is roughly 3 nM. Also, in assay [5], the Kd was 4.69 nM, the koff amounted to 0.00207 s⁻¹ and the kon is 442000 M⁻¹ s⁻¹.

B2: c95E2D10 (antibody, V domains shown)
VH: QIQLQQSGPELVKPGASMKISCKASGYPFTDYYIHWVKQKPGQGLEWIGWIYPGSGNNKYNEKFKGKATLTVDTSPSTVYMQLSSLTSEDTAVYFCARRAGNYFDYWGQGTTLTVSS
VL: NIVMTQSPKSMSRSVGERVTLSCRASENVRTYVFWYQQKPGLSPKLLIYGASNRYIGVPDRFTGSGSATDFTLTISSVQAEDLADYHCGQSYSYPLTFGAGTKLELK
Turning to B2, the “IC50 (read off the curve)” value in assay [6] was roughly 1 nM. Further, in assay [5], the equilibrium dissociation constant (Kd) amounted to 10.2 nM, the koff came out at 0.00358 s⁻¹ and the kon came out at 350000 M⁻¹ s⁻¹.
